Laboratory results: publication PMC7772510

How the values were obtained:
[1] = biological target: complement fragment iC3b (UniProt P01024); assay: ELISA
[2] = biological target: complement fragment iC3b (UniProt P01024); assay: SPR

Row | Binder | Kd [1] [nM] | Kd [2] [nM]
1 | GST-αX I-domain (domain or fragment) RQEQDIVFLIDGSGSISSRNFATMMNFVRAVISQFQRPSTQFSLMQFSNKFQTHFTFEEFRRSSNPLSLLASVHQLQGFTYTATAIQNVVHRLFHASYGARRDAAKILIVITDGKKEGDSLDYKDVIPMADAAGIIRYAIGVGLAFQNRNSWKELNDIASKPSQEHIFKVEDFDALKDIQNQLKEKIFAIEG | 1000 | 1060
2 | GST-αX I-domain K242A/K243A (domain or fragment) RQEQDIVFLIDGSGSISSRNFATMMNFVRAVISQFQRPSTQFSLMQFSNKFQTHFTFEEFRRSSNPLSLLASVHQLQGFTYTATAIQNVVHRLFHASYGARRDAAKILIVITDGAAEGDSLDYKDVIPMADAAGIIRYAIGVGLAFQNRNSWKELNDIASKPSQEHIFKVEDFDALKDIQNQLKEKIFAIEG | – | 2890

The next binders have a lower Kd [2] than those just listed; values first:

Row | Kd [1] [nM] | Kd [2] [nM] | Binder
3 | – | 560 | GST-αX I-domain K243S/E244H (domain or fragment) RQEQDIVFLIDGSGSISSRNFATMMNFVRAVISQFQRPSTQFSLMQFSNKFQTHFTFEEFRRSSNPLSLLASVHQLQGFTYTATAIQNVVHRLFHASYGARRDAAKILIVITDGKSHGDSLDYKDVIPMADAAGIIRYAIGVGLAFQNRNSWKELNDIASKPSQEHIFKVEDFDALKDIQNQLKEKIFAIEG
4 | – | 490 | GST-αX I-domain D249M (domain or fragment) RQEQDIVFLIDGSGSISSRNFATMMNFVRAVISQFQRPSTQFSLMQFSNKFQTHFTFEEFRRSSNPLSLLASVHQLQGFTYTATAIQNVVHRLFHASYGARRMAAKILIVITDGKKEGDSLDYKDVIPMADAAGIIRYAIGVGLAFQNRNSWKELNDIASKPSQEHIFKVEDFDALKDIQNQLKEKIFAIEG
